Experimental data reported in patent US20230134571A1 (INTERNATIONAL AIDS VACCINE INITIATIVE, published 2023).

How the values were obtained:
Assay in all cases: cell-based or functional assay
[1] = target: HIV Env, isolate 19252094_A5_G2 (HIV)
[2] = target: HIV Env, isolate CT140_140_B6 (HIV)
[3] = target: HIV Env, isolate Ce703010054_2A2 (HIV)
[4] = target: HIV Env, isolate 19707346_E8_C6 (HIV)
[5] = target: HIV Env, isolate ZM249M.PL1 (HIV)
[6] = target: HIV Env, isolate So431_C1_1 (HIV)
[7] = target: HIV Env, isolate 933.v4.c4 (HIV)
[8] = target: HIV Env, isolate CT565_C7.48 (HIV)
[9] = target: HIV Env, isolate 20927783 (HIV)

B1: ePGDM9 (antibody, V domains shown)
VH: QAQLVQSGPEVRKPGTSVKVSCKNPGNTLTTYDLHWVRQVPGQGLQWMGWISHEGDKKVIVERFKAKVTIDWDRSTNTAYLQLSGLTSEDTAVYYCAKGSKHRLRDYALYDEDGALNWAVDVDYLANLEFWGQGTAVTVSS
VL: DIVLTQSPLSLSVTPGESASISCKSSQSLIHGDRNNYLAWYVQKPGRSPQLLIDLASERASGVPDRFSGSGSRKDFTLKISRVETEDVGTYYCMQGRESPWTFGQGTKVDIK
B1 was tested, and the “IC50” value [1] was 0.001 mg/L, the “IC80” value [1] was 0.003 mg/L and the “IC50” value [2] was 0.248 mg/L. The “IC80” value [2] was 1.83 mg/L, the “IC50” value [3] was 0.005 mg/L and the “IC80” value [3] was 0.027 mg/L. The “IC50” value [4] was 0.005 mg/L, the “IC80” value [4] was 0.014 mg/L and the “IC50” value [5] was 0.004 mg/L. For the same binder, the “IC80” value [5] was 0.05 mg/L, the “IC50” value [6] was > 50 mg/L and the “IC80” value [6] was > 50 mg/L. For the same binder, the “IC50” value [7] was > 50 mg/L, the “IC80” value [7] was > 50 mg/L and the “IC50” value [8] was < 0.0006 mg/L. The “IC80” value [8] was 0.086 mg/L, the “IC50” value [9] was 0.005 mg/L and the “IC80” value [9] was 0.017 mg/L.
